Data: patent publication US20170349669A1 (Hoffmann-La Roche, published 2017)

T1: human IL17 (human, UniProt Q16552 24-155)
T1 construct: Used as analyte in solution; also called IL17-A
T1 sequence (looked up): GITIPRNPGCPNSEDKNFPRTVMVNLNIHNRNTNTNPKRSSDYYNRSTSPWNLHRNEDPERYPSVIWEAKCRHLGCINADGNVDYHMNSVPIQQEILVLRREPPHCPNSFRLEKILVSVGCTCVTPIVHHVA

T2: TWEAK (human, UniProt O43508 94-249, limits assumed)
T2 construct: The assay paragraph says only 'TWEAK'; also called human TWEAK; TNF-related weak inducer of apoptosis
T2 sequence (looked up): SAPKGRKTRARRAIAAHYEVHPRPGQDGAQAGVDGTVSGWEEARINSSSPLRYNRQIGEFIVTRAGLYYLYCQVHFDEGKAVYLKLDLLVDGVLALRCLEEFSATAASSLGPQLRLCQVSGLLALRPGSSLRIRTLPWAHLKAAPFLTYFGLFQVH

T3: human VEGFA-121-His (human, UniProt P15692-9 27-147)
T3 construct: Captured on an anti-His antibody surface; P15692 is the canonical VEGF-A entry, and the 121 isoform is one of its splice forms; also called VEFGA-121-His; not shown: His tag
T3 sequence (looked up): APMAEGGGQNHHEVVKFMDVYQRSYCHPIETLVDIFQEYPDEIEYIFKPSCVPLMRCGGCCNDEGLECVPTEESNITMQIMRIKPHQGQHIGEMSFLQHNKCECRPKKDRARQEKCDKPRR

T4: human Ang-2-RBD-Fc (human, UniProt O15123 275-496, limits assumed)
T4 construct: domain: RBD; Used as analyte in solution; The KD is called apparent; not shown: Fc part
T4 sequence (looked up): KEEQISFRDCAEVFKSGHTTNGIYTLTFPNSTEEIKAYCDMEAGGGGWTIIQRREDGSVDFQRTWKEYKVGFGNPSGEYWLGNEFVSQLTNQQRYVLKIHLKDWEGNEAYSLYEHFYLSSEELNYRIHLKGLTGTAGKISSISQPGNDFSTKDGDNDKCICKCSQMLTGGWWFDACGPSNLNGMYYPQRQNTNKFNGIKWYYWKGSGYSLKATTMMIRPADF


Experiments:
[1] = target: T1, human IL17; experiment: SPR Biacore T200 25 C, antibody captured via anti-human F(ab')2, human IL17 as analyte, 1:1 Langmuir
Experimental: Around 6000 resonance units (RU) of the capturing system (15 μg/ml goat anti human F(ab′)2; Order Code: 28958325; GE Healthcare Bio-Sciences AB, Schweden) were coupled on a CM5 chip at pH 5.0 by using an amine coupling kit supplied by the GE Healthcare. The sample and system buffer was PBS-T (10 mM phosphate buffered saline including 0.05% Tween 20) pH 7.4. The bispecific antibody was captured by injecting a 50 nM solution for 90 sec at a flow of 10 μl/min. Association was measured by injection human IL17 in various concentrations in solution for 3 min at a flow of 30 μl/min starting with 50 nM in 1:1 serial dilutions. The dissociation phase was monitored for up to 10 min and triggered by switching from the sample solution to running buffer. The surface was regenerated twice by 60 sec wash with a 10 mM glycine pH 2.1 solution at a flow rate of 30 μl/min. Bulk refractive index differences were corrected by subtracting the response obtained from a goat anti human F(ab′)2 surface. Blank injections are also subtracted (=double referencing). For calculation of apparent KD and other kinetic parameters, the Langmuir 1:1 model was used.

[2] = target: T2, TWEAK; experiment: SPR Biacore T200 25 C, apparent KD, TWEAK amine-coupled on C1 chip, antibody as analyte
[3] = target: T3, human VEGFA-121-His; experiment: SPR Biacore T200, VEGFA-121-His captured via anti-His, antibody as analyte, 1:1 Langmuir
Experimental: Binding of indicated antibodies to human VEGFA-121 was investigated by surface plasmon resonance using a BIACORE® T200 instrument (GE Healthcare). Around 10000 (RU) of anti His antibody (1 μg/ml anti His antibody; Order Code: 28995056; GE Healthcare Bio-Sciences AB, Sweden) were coupled on a Series S CM5 chip (GE Healthcare BR-1005-30) at pH 5.0 by using an amine coupling kit supplied by the GE Healthcare. HBS-N (10 mM HEPES, 150 mM NaCl pH 7.4, GE Healthcare) was used as running buffer during the immobilization procedure. For the following kinetic characterization, sample and running buffer was PBS-T (10 mM phosphate buffered saline including 0.05% Tween20) at pH 7.4. The flow cell was set to 25° C.—and the sample block set to 12° C.—and primed with running buffer twice prior to kinetic characterization.
VEFGA-121-His was captured by injecting a 0.5 μg/ml solution for 30 sec at a flow of 5 μl/min. The association was measured by injection of the indicated antibodies in various concentrations in solution for 180 sec at a flow of 30 μl/min starting with 1000 nM in 1:3 serial dilutions. The dissociation phase was monitored for up to 600 sec and triggered by switching from the sample solution to running buffer. The surface was regenerated by 60 sec washing with a Glycine pH 1.5 solution at a flow rate of 30 μl/min. Bulk refractive index differences were corrected by subtracting the response obtained from a anti His antibody surface. Blank injections are also subtracted (=double referencing). For calculation of KD and other kinetic parameters the Langmuir 1:1 model was used.

[4] = target: T4, human Ang-2-RBD-Fc; experiment: SPR Biacore T200, apparent KD, antibody captured via anti-human F(ab')2, Ang2-RBD-Fc as analyte
Experimental: Binding of indicated antibodies to human Ang-2-RBD-Fc was investigated by surface plasmon resonance using a BIACORE® T200 instrument (GE Healthcare). Around 8000 (RU) of goat anti human F(ab′)₂ (10 μg/ml anti human F(ab)′₂; Order Code: 28958325; GE Healthcare Bio-Sciences AB, Sweden) were coupled on a Series S CM5 chip (GE Healthcare BR-1005-30) at pH 5.0 by using an amine coupling kit supplied by the GE Healthcare. HBS-N (10 mM HEPES, 150 mM NaCl pH 7.4, GE Healthcare) was used as running buffer during the immobilization procedure. For the following kinetic characterization, sample and running buffer was PBS-T (10 mM phosphate buffered saline including 0.05% Tween20) at pH 7.4. The flow cell was set to 25° C.—and the sample block set to 12° C.—and primed with running buffer twice prior to kinetic characterization.
The bispecific antibody was captured by injecting a 5 nM solution for 25 sec at a flow of 5 μl/min. The association was measured by injection of human Ang2-RBD-Fc in various concentrations in solution for 120 sec at a flow of 30 μl/min starting with 100 nM in 1:3 serial dilutions. The dissociation phase was monitored for up to 180 sec and triggered by switching from the sample solution to running buffer. The surface was regenerated by 60 sec washing with a Glycine pH 2.1 solution at a flow rate of 30 μl/min. Bulk refractive index differences were corrected by subtracting the response obtained from a goat anti human F(ab′)₂ surface. Blank injections are also subtracted (=double referencing). For calculation of apparent KD the Langmuir 1:1 model was used.

| Binder | Kd [1] [nM] | Kd [2] [nM] | Kd [3] [nM] | Kd [4] [nM] |
| --- | --- | --- | --- | --- |
| TweakIL17_102 (bispecific antibody, human IgG4 S228P, kappa, also called TweakIL17_0102) heavy 1: DIQMTQSPSSVSASVGDRVTITCQASQNIYSNLAWYQQKPGKAPKLLIYTASYLASGVPSRFSGSGSGTDYTLTISSLQPEDFATYYCQTAYYNSRPDTVAFGGGTKVEIKRTVAAPSVFIFPPSDEQLKSGTASVVCLLNNFYPREAKVQWKVDNALQSGNSQESVTEQDSKDSTYSLSSTLTLSKADYEKHKVYACEVTHQGLSSPVTKSFNRGECPPCPPCPAPEFEGGPSVFLFPPKPKDTLMISRTPEVTCVVVDVSQEDPEVQFNWYVDGVEVHNAKTKPREEQFNSTYRVVSVLTVLHQDWLNGKEYKCKVSNKGLPSSIEKTISKAKGQPREPQVYTLPPCQEEMTKNQVSLWCLVKGFYPSDIAVEWESNGQPENNYKTTPPVLDSDGSFFLYSRLTVDKSRWQEGNVFSCSVMHEALHNHYTQKSLSLSL light 1: QVQLVQSGAEVKKPGSSVKVSCKASGFDFSTYYMSWVRQAPGQGLEWMGTVYVRQGTTYYASWLNGRVTITADESTSTAYMELSSLRSEDTAVYYCARGGYNYDDAFVIWGQGTLVTVSSASTKGPSVFPLAPCSRSTSESTAALGCLVKDYFPEPVTVSWNSGALTSGVHTFPAVLQSSGLYSLSSVVTVPSSSLGTKTYTCNVDHKPSNTKVDKRVESKYG heavy 2: EVQLVESGGGLVQPGGSLRLSCAASGFSLDSYGVHWVRQATGKGLEWVSVIWSDGTTTYNSALKSRFTISRENAKNSLYLQMNSLRAGDTAVYYCARDTHYRLYYYAMDYWGQGTTVTVSSASTKGPSVFPLAPCSRSTSESTAALGCLVEDYFPEPVTVSWNSGALTSGVHTFPAVLQSSGLYSLSSVVTVPSSSLGTKTYTCNVDHKPSNTKVDERVESKYGPPCPPCPAPEFEGGPSVFLFPPKPKDTLMISRTPEVTCVVVDVSQEDPEVQFNWYVDGVEVHNAKTKPREEQFNSTYRVVSVLTVLHQDWLNGKEYKCKVSNKGLPSSIEKTISKAKGQPREPQVCTLPPSQEEMTKNQVSLSCAVKGFYPSDIAVEWESNGQPENNYKTTPPVLDSDGSFFLVSRLTVDKSRWQEGNVFSCSVMHEALHNHYTQKSLSLSL light 2: DIVMTQSPLSLPVTPGEPASISCRSSQSLVHSNGDTYFHWYLQKPGQSPQLLIYKVSNRFSGVPDRFSGSGSGTDFTLKISRVEAEDVGVYYCSQTTHAPFTFGQGTKLEIKRTVAAPSVFIFPPSDKKLKSGTASVVCLLNNFYPREAKVQWKVDNALQSGNSQESVTEQDSKDSTYSLSSTLTLSKADYEKHKVYACEVTHQGLSSPVTKSFNRGEC | 0.1 | < 0.1 | – | – |
| Ang2VEGF_469 (bispecific antibody, human IgG1, kappa, The charged substitutions are in the crossed (VEGF) arm) heavy 1: not shown light 1: EVQLVESGGGLVQPGGSLRLSCAASGYTFTNYGMNWVRQAPGKGLEWVGWINTYTGEPTYAADFKRRFTFSLDTSKSTAYLQMNSLRAEDTAVYYCAKYPHYYGSSHWYFDVWGQGTLVTVSSASTKGPSVFPLAPSSKSTSGGTAALGCLVEDYFPEPVTVSWNSGALTSGVHTFPAVLQSSGLYSLSSVVTVPSSSLGTQTYICNVNHKPSNTKVDEKVEPKSC heavy 2: not shown light 2: QPGLTQPPSVSVAPGQTARITCGGNNIGSKSVHWYQQKPGQAPVLVVYDDSDRPSGIPERFSGSNSGNTATLTISRVEAGDEADYYCQVWDSSSDHYVFGTGTKVTVLRTVAAPSVFIFPPSDEQLKSGTASVVCLLNNFYPREAKVQWKVDNALQSGNSQESVTEQDSKDSTYSLSSTLTLSKADYEKHKVYACEVTHQGLSSPVTKSFNRGEC | – | – | 13 | 3 |
| Ang2VEGF_470 (bispecific antibody, human IgG1, kappa, The charged substitutions are in the crossed (VEGF) arm, with Q124E added in the Ang2 light chain) heavy 1: not shown light 1: EVQLVESGGGLVQPGGSLRLSCAASGYTFTNYGMNWVRQAPGKGLEWVGWINTYTGEPTYAADFKRRFTFSLDTSKSTAYLQMNSLRAEDTAVYYCAKYPHYYGSSHWYFDVWGQGTLVTVSSASTKGPSVFPLAPSSKSTSGGTAALGCLVEDYFPEPVTVSWNSGALTSGVHTFPAVLQSSGLYSLSSVVTVPSSSLGTQTYICNVNHKPSNTKVDEKVEPKSC heavy 2: not shown light 2: QPGLTQPPSVSVAPGQTARITCGGNNIGSKSVHWYQQKPGQAPVLVVYDDSDRPSGIPERFSGSNSGNTATLTISRVEAGDEADYYCQVWDSSSDHYVFGTGTKVTVLRTVAAPSVFIFPPSDEELKSGTASVVCLLNNFYPREAKVQWKVDNALQSGNSQESVTEQDSKDSTYSLSSTLTLSKADYEKHKVYACEVTHQGLSSPVTKSFNRGEC | – | – | 12 | 3 |
